Measurements taken from patent US20260117202A1.
Values joined by “and” are separate entries in the source; they are usually repeats but may differ in a detail not shown here. Equal values may be shown once.

Legend:
[1] = target: FHCS-1 (RSV strain A2) (UniProt P03420); assay: ELISA; F coated 625 ng/ml; stored -80° C.
[2] = target: FHCS-2 (RSV strain A2) (UniProt P03420); assay: ELISA; F coated 625 ng/ml; stored -80° C.
[3] = target: FHCS-4 (RSV strain A2) (UniProt P03420); assay: ELISA; F coated 625 ng/ml; stored -80° C.
[4] = target: FHCS-1 (RSV strain A2) (UniProt P03420); assay: ELISA; F coated 1250 ng/ml; stored -80° C.
[5] = target: FHCS-2 (RSV strain A2) (UniProt P03420); assay: ELISA; F coated 1250 ng/ml; stored -80° C.
[6] = target: FHCS-4 (RSV strain A2) (UniProt P03420); assay: ELISA; F coated 1250 ng/ml; stored -80° C.
[7] = target: FHCS-1 (RSV strain A2) (UniProt P03420); assay: ELISA; F coated 2500 ng/ml; stored -80° C.
[8] = target: FHCS-2 (RSV strain A2) (UniProt P03420); assay: ELISA; F coated 2500 ng/ml; stored -80° C.
[9] = target: FHCS-4 (RSV strain A2) (UniProt P03420); assay: ELISA; F coated 2500 ng/ml; stored -80° C.
[10] = target: FHCS-1 (RSV strain A2) (UniProt P03420); assay: ELISA; F coated 10000 ng/ml; stored -80° C.
[11] = target: FHCS-2 (RSV strain A2) (UniProt P03420); assay: ELISA; F coated 10000 ng/ml; stored -80° C.
[12] = target: FHCS-4 (RSV strain A2) (UniProt P03420); assay: ELISA; F coated 10000 ng/ml; stored -80° C.
[13] = target: FHCS-2 (RSV strain A2) (UniProt P03420); assay: ELISA; F coated 312.5 ng/ml; stored -80° C.
[14] = target: FHCS-4 (RSV strain A2) (UniProt P03420); assay: ELISA; F coated 312.5 ng/ml; stored -80° C.
[15] = target: FHCS-1 (RSV strain A2) (UniProt P03420); assay: ELISA; F coated 625 ng/ml; stored 37° C. 4 W
[16] = target: FHCS-2 (RSV strain A2) (UniProt P03420); assay: ELISA; F coated 625 ng/ml; stored 37° C. 4 W
[17] = target: FHCS-4 (RSV strain A2) (UniProt P03420); assay: ELISA; F coated 625 ng/ml; stored 37° C. 4 W
[18] = target: FHM-24 (RSV strain A2) (UniProt P03420); assay: sandwich ELISA, AM14 coated, supernatant 1:10
[19] = target: FHS-2 (RSV strain A2) (UniProt P03420); assay: sandwich ELISA, AM14 coated, supernatant 1:10
[20] = target: FHS-44 (RSV strain A2) (UniProt P03420); assay: sandwich ELISA, AM14 coated, supernatant 1:10
[21] = target: FHS-51 (RSV strain A2) (UniProt P03420); assay: sandwich ELISA, AM14 coated, supernatant 1:10
[22] = target: FHS-57 (RSV strain A2) (UniProt P03420); assay: sandwich ELISA, AM14 coated, supernatant 1:10
[23] = target: FHS-59 (RSV strain A2) (UniProt P03420); assay: sandwich ELISA, AM14 coated, supernatant 1:10
[24] = target: FHS-81 (RSV strain A2) (UniProt P03420); assay: sandwich ELISA, AM14 coated, supernatant 1:10
[25] = target: FHS-91 (RSV strain A2) (UniProt P03420); assay: sandwich ELISA, AM14 coated, supernatant 1:10
[26] = target: FHS-96 (RSV strain A2) (UniProt P03420); assay: sandwich ELISA, AM14 coated, supernatant 1:10
[27] = target: FHCS-1 (RSV strain A2) (UniProt P03420); assay: ELISA; F coated 1250 ng/ml; stored 37° C. 4 W
[28] = target: FHCS-2 (RSV strain A2) (UniProt P03420); assay: ELISA; F coated 1250 ng/ml; stored 37° C. 4 W
[29] = target: FHCS-4 (RSV strain A2) (UniProt P03420); assay: ELISA; F coated 1250 ng/ml; stored 37° C. 4 W
[30] = target: FHCS-1 (RSV strain A2) (UniProt P03420); assay: ELISA; F coated 2500 ng/ml; stored 37° C. 4 W
[31] = target: FHCS-2 (RSV strain A2) (UniProt P03420); assay: ELISA; F coated 2500 ng/ml; stored 37° C. 4 W
[32] = target: FHCS-4 (RSV strain A2) (UniProt P03420); assay: ELISA; F coated 2500 ng/ml; stored 37° C. 4 W
[33] = target: FHCS-1 (RSV strain A2) (UniProt P03420); assay: ELISA; F coated 312.5 ng/ml; stored 37° C. 4 W
[34] = target: FHCS-2 (RSV strain A2) (UniProt P03420); assay: ELISA; F coated 312.5 ng/ml; stored 37° C. 4 W
[35] = target: FHCS-4 (RSV strain A2) (UniProt P03420); assay: ELISA; F coated 312.5 ng/ml; stored 37° C. 4 W
[36] = target: FHCS-1 (RSV strain A2) (UniProt P03420); assay: ELISA; F coated 156.3 ng/ml; stored 37° C. 4 W
[37] = target: FHCS-2 (RSV strain A2) (UniProt P03420); assay: ELISA; F coated 156.3 ng/ml; stored 37° C. 4 W
[38] = target: FHCS-4 (RSV strain A2) (UniProt P03420); assay: ELISA; F coated 156.3 ng/ml; stored 37° C. 4 W

| Substance | OD value [1] | OD value [2] | OD value [3] | OD value [4] | OD value [5] | OD value [6] | OD value [7] | OD value [8] | OD value [9] | OD value [13] | OD value [14] | OD value [15] | OD value [16] | OD value [17] | OD value [27] | OD value [28] | OD value [29] | OD value [30] | OD value [31] | OD value [32] | also measured |
| --- | --- | --- | --- | --- | --- | --- | --- | --- | --- | --- | --- | --- | --- | --- | --- | --- | --- | --- | --- | --- | --- |
| AM14 monoclonal antibody | 0.003 OD and 0.005 OD | 0.005 OD and 0.006 OD | 0.007 OD | 0.006 OD | 0.009 OD and 0.013 OD | 0.013 OD and 0.011 OD | 0.021 OD and 0.03 OD | 0.02 OD and 0.024 OD | 0.04 OD and 0.028 OD | 0.005 OD | 0.004 OD and 0.007 OD | 0.006 OD and 0.008 OD | 0.005 OD and 0.006 OD | 0.006 OD and 0.007 OD | 0.018 OD and 0.024 OD | 0.025 OD and 0.019 OD | 0.007 OD and 0.008 OD | 0.109 OD and 0.096 OD | 0.45 OD and 0.185 OD | 0.045 OD and 0.019 OD | OD value [10]: 1.82 OD and 2.12 OD; OD value [11]: 1.88 OD and 2.15 OD; OD value [12]: 2.13 OD and 1.93 OD; OD value [18]: 1.61 OD; OD value [19]: 0.012 OD; OD value [20]: 0.039 OD; OD value [21]: 0.006 OD; OD value [22]: 0.007 OD; OD value [23]: 0.006 OD; OD value [24]: 0.008 OD; OD value [25]: 0.008 OD; OD value [26]: 0.011 OD; OD value [33]: 0.005 OD; OD value [34]: 0.005 OD; OD value [35]: 0.004 OD and 0.007 OD |
| Synagis® (antibody) | 0.17 OD and 0.181 OD | 0.209 OD and 0.208 OD | 0.094 OD and 0.066 OD | 0.357 OD and 0.35 OD | 0.572 OD and 0.767 OD | 0.252 OD and 0.209 OD | 1.35 OD | 1.65 OD and 1.91 OD | 0.825 OD and 0.743 OD | 0.089 OD and 0.108 OD | 0.052 OD and 0.033 OD | 0.324 OD and 0.612 OD | 0.42 OD and 0.4 OD | 0.378 OD and 0.389 OD | 1.17 OD and 1.22 OD | 0.995 OD and 0.91 OD | 1.05 OD and 0.985 OD | 1.91 OD and 2.11 OD | 1.82 OD and 1.84 OD | 1.8 OD and 1.78 OD | OD value [33]: 0.142 OD and 0.168 OD; OD value [34]: 0.154 OD and 0.143 OD; OD value [35]: 0.138 OD and 0.12 OD; OD value [36]: 0.055 OD and 0.062 OD; OD value [37]: 0.069 OD and 0.058 OD; OD value [38]: 0.05 OD and 0.048 OD |
